The results in this text go back to patent US20120135912A1 (PERSEID THERAPEUTICS, published 2012).

One may read the Kd as the equilibrium constant for the complex coming apart. Read a low Kd as higher affinity.

The target in assay [1] is T1, human VLA4-Fc (alpha4-Fc/beta1-Fc heterodimer) (human).
T1 construct: Soluble heterodimer from CHO cells, Protein A purified; also called VLA-Fc
Kind of assay: SPR (BIACORE), crude CHO-S supernatant on VLA4-Fc. (SPR reads the build-up and loss of mass on a sensor chip optically.)

In assay [2] the target is T2, human LPAM-1-Fc (alpha4-Fc/beta7-Fc heterodimer) (human).
T2 construct: Soluble heterodimer from CHO cells, Protein A purified
Briefly: SPR (BIACORE), LPAM-1-Fc captured by anti-human IgG, 1 mM MnCl2, 1:1 Langmuir. How it is done:
(§1) The kinetic 2D-VCAM-1 assay measures binding kinetics of a dimeric ligand (e.g., VLA-Fc fusion protein or LPAM-1-Fc fusion protein) coated to sensor chips and monomeric analyte (e.g., 2D-VCAM-1 variant polypeptides) in the mobile phase. Goat anti-human IgG antibody (Jackson ImmunoResearch, Catalog No. 105-005-098) was immobilized on CM-5 sensor chips (GE Healthcare, Catalog No. BR-1000-14) according to the manufacturer's protocol. Antibody was diluted to 30 μg/ml in immobilization buffer (10 mM sodium acetate, pH 5.0 (GE Healthcare, Catalog No. BR-1003-51)). […] Un-reacted sites were quenched with 35 μl of 1 M ethanolamine-HCl pH 8.5 (GE Healthcare, Catalog No. BR-1000-50). This procedure typically yielded 15,000 response units (RU) of coupled antibody. VLA4-Fc or LPAM-1-Fc, prepared as described in Examples 3 and 4, respectively, were bound to antibody-coated sensor chips by injection of 20 μl of ligand solution (20 μg/ml protein in HBS-P-Mn buffer at a flow rate of 10 μl/min). Ligand capture levels were typically 200-300 RU. 2D-VCAM-1 variant polypeptides were diluted in HBS-P-Mn and flowed over ligand-coated sensor chips for 2 min at 30 μl/min, followed by 5 min incubation with in HBS-P-Mn containing no protein at the same flow rate. For 2D-VCAM-1 variant polypeptides having very slow dissociation rates from VLA4-Fc or LPAM-1-Fc, kinetic assays were also conducted using longer dissociation times (e.g., 20 min). Rmax signal levels for 2D-VCAM-1 variant polypeptides ranged from approximately 5-25 RU. Regeneration between cycles was performed by 200 sec incubation with 10 mM glycine buffer (pH 1.7) at 50 μl/min. New chips were subjected to 4-5 cycles of capture/binding/regeneration prior to use in actual experiments. Data from a reference cell containing goat anti-human IgG capture antibody alone was subtracted from data obtained from flow cells containing captured VLA4-Fc or LPAM-1-Fc. Typically, 8 dilutions of 2D-VCAM-1 variant polypeptides ranging from 150 nM to 0.069 nM were analyzed against a blank reference (HBS-P-Mn buffer alone).

Assay [3] concerns the target T1, human VLA4-Fc (alpha4-Fc/beta1-Fc …). Briefly: SPR (BIACORE), VLA4-Fc captured by anti-human IgG, 1 mM MnCl2, 1:1 Langmuir. As for the experimental part:
as §1

Assay [4] shares this target. Briefly: ELISA, VLA4-Fc coated, 1 mM MnCl2; from EC50 values. As for the experimental part:
The relative binding affinities of various 2D-VCAM-1 variants to immobilized VLA4-Fc (α4-β1-Fc) heterodimer, relative to a control protein (e.g., Q38L-2D-VCAM-1 or to human 2D-VCAM-1), were deter using a solid-phase ELISA assay. MAXISORP™ ELISA plates (NUNC) were coated overnight at 4° C. with 50 ul VLA4-Fc heterodimer, 2 ug/ml in TBS-M (TBS (25 mM Tris-HCl pH 7.5, 150 mM NaCl) with 1 mM MnCl2), washed with TBS-T (TBS with 0.05% TWEEN-20), blocked with 200 ul 3% milk in TBS-M for 1 h at room temperature, and washed again with TBS-T. A four-fold dilution series of the purified 2D-VCAM variants to be assayed was made in COSTAR U-bottom plates in TBS-TMC (TBS with 0.05% Tween-20, 1 mM MnCl2, and 1% casein; Sigma) with a starting concentration of 8.2 uM (200 ug/ml). The dilution series was transferred into the ELISA plate which was incubated at room temperature for 2 h and subsequently washed with TBS-T. Bound 2D-VCAM protein was detected by incubation with 0.5 ug/ml of biotinylated anti-human VCAM antibody (R&D Systems, Catalog No. BAF809) in TBS-TMC for 1 h at room temperature followed by a TBS-MT (TBS plus 1 mM MnCl2 and 0.02% TWEEN-20) wash and subsequent incubation with 1:2000 dilution of streptavidin-HRP (BD Biosciences, Catalog No. 554066) in TBS-TMC for 30 min at room temperature. […] Typical development times ranged from […] and development was stopped by addition of 50 ul 2M H₂SO₄ (EM, Catalog No. SX1244-75). […] Fold-improvement in binding was calculated relative to a control protein (e.g., Q38L-2D-VCAM-1 or human 2D-VCAM-1) assayed on the same plate.

The target of assay [5] is T2, human LPAM-1-Fc (alpha4-Fc/beta7-Fc …). Kind of assay: SPR (BIACORE) as in Example 12, polypeptide purified from E. coli as analyte on captured LPAM-1-Fc; KD drawn as bars (Example 20).

T1 sequence (chain, as listed by the source limits assumed, form in doubt, chain 1 of 2): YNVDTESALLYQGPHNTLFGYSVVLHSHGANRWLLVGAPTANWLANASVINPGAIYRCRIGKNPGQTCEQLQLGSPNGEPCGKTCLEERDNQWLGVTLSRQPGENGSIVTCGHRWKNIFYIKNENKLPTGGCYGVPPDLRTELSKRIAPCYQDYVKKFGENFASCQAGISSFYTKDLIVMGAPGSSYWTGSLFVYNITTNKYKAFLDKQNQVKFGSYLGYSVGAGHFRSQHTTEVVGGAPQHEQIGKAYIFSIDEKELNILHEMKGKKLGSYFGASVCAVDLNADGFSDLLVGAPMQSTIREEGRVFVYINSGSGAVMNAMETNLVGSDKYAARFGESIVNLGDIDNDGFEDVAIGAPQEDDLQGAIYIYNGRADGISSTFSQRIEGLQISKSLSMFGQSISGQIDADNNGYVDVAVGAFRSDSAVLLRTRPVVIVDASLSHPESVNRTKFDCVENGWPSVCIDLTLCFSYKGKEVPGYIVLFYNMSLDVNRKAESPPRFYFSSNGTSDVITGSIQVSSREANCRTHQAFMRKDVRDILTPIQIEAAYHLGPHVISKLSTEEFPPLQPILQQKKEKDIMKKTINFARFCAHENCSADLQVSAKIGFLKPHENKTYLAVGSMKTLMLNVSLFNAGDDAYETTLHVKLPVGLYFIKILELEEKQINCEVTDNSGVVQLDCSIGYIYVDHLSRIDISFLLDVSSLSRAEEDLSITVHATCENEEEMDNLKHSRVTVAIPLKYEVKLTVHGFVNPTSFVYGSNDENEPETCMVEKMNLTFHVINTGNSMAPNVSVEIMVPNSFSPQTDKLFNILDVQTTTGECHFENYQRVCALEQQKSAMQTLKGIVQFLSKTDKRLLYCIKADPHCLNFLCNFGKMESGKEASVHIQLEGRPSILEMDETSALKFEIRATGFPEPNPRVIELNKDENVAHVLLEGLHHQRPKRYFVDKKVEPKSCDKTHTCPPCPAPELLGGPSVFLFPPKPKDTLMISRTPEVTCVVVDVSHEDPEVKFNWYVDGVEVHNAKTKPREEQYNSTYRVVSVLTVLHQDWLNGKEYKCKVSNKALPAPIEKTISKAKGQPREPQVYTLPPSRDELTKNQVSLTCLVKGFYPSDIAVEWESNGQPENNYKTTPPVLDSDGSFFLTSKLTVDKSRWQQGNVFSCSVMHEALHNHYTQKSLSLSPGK
T1 sequence (chain, as listed by the source limits assumed, form in doubt, chain 2 of 2): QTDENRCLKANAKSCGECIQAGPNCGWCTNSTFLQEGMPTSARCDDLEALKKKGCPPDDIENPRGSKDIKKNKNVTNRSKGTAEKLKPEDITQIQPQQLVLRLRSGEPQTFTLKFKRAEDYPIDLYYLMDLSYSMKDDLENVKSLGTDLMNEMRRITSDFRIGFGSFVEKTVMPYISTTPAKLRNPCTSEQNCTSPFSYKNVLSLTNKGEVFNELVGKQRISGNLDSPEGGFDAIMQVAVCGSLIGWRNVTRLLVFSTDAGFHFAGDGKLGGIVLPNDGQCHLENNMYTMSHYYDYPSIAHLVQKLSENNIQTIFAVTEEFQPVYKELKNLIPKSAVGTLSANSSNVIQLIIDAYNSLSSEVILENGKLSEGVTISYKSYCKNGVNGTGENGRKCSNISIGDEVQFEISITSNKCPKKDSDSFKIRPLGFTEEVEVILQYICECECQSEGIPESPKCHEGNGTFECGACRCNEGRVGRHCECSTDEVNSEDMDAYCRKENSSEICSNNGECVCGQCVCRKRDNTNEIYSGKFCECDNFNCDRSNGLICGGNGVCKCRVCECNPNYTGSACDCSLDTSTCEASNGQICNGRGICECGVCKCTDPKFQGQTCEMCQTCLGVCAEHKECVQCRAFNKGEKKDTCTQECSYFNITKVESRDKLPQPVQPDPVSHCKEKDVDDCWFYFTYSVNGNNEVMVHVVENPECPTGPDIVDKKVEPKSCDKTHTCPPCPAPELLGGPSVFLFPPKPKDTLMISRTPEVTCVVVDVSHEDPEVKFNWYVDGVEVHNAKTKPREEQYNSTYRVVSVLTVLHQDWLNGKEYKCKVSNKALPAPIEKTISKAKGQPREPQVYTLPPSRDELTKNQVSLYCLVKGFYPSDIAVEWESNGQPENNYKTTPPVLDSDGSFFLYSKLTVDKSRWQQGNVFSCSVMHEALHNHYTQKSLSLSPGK
T2 sequence (chain, as listed by the source limits assumed, chain 1 of 2): as the sequence (chain, as listed by the source limits assumed, form in doubt, chain 1 of 2) above
T2 sequence (chain, as listed by the source limits assumed, chain 2 of 2): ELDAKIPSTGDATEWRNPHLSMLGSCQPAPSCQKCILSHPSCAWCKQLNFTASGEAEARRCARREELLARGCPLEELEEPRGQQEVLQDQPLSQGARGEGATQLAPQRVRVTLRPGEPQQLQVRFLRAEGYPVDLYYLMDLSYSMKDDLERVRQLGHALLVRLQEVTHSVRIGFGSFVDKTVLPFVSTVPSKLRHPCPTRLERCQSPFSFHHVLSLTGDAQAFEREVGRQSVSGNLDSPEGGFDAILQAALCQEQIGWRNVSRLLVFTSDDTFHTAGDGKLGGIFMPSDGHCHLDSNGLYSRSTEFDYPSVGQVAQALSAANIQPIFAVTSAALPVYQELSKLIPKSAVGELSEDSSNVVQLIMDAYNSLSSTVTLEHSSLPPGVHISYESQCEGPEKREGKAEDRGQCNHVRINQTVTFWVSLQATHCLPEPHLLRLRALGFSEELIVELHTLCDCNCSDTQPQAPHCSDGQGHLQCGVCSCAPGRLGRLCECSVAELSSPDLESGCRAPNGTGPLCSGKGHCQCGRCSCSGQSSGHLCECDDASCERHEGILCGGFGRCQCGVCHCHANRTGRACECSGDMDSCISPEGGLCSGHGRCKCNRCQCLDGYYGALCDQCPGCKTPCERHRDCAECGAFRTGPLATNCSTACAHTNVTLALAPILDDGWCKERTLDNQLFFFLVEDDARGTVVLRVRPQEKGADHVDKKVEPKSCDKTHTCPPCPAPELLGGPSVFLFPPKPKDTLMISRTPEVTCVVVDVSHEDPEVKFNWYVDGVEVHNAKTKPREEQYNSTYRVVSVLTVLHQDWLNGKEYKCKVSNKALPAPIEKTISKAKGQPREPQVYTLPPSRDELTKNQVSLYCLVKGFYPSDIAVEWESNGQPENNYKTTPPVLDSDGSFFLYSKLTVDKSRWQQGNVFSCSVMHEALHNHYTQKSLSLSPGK

B1: 146R20 (ligand)
chain: FKIETTPESRYLAQIGDSVSLTCSTTGCESPFFFWRPQIDSPLNGKVTNEGTTSTLTMNPVSFGNEHSYLCTARCESRSLEKGIQVEIYSFPKDPEIHLSGPLEAGKPITVKCSVADVYPFDRLEIDLLKGDHLMKSQEFLEDADRKSLETKSLEVTFTPVIEDIGKVLVCRAKLHIDEMDSVPTVRQAVKELQVYISPGGGSDYKDDDDKGGGSDYKDDDDKGGGSDYKDDDDKGS
notes: Crude CHO-S supernatant, 3x spacer-FLAG tagged
Regarding B1, the “fold weaker binding relative to 146R0 (KD(variant)/KD(146R0))” value (“fold weaker binding relative to 146R0” below) in assay [1] came to 9.3 fold.

B2: 146R22 (ligand)
chain: FKIETTPESRYLAQIGDSVSLTCSTTGCESPLFFWRTLLDSPLNGKVTNEGTTSTLTMNPVSFGNEHSYLCTARCESRKLEKGIQVEIYSFPKDPEIHLSGPLEAGKPITVKCSVADVYPFDRLEIDLLKGDHLMKSQEFLEDADRKSLETKSLEVTFTPVIEDIGKVLVCRAKLHIDEMDSVPTVRQAVKELQVYISPGGGSDYKDDDDKGGGSDYKDDDDKGGGSDYKDDDDKGS
notes: as for B1
As to B2, the “fold weaker binding relative to 146R0” value in assay [1] turned out to be 1.6 fold.

B3: 146R23 (ligand)
chain: FKIETTPESRYLAQIGDSVSLTCSTTGCESPFFFWRTLLDSPLNGKVTNEGTTSTLTMNPVSFGNEHSYLCTARCESRKLEKGIQVEIYSFPKDPEIHLSGPLEAGKPITVKCSVADVYPFDRLEIDLLKGDHLMKSQEFLEDADRKSLETKSLEVTFTPVIEDIGKVLVCRAKLHIDEMDSVPTVRQAVKELQVYISPGGGSDYKDDDDKGGGSDYKDDDDKGGGSDYKDDDDKGS
notes: as for B1
Consider B3, for which, in assay [1], the “fold weaker binding relative to 146R0” value was determined as 6.1 fold.

B4: 146R21 (ligand)
chain: FKIETTPESRYLAQIGDSVSLTCSTTGCESPFFFWRTLLDSPLNGKVTNEGTTSTLTMNPVSFGNEHSYLCTARCESRSLEKGIQVEIYSFPKDPEIHLSGPLEAGKPITVKCSVADVYPFDRLEIDLLKGDHLMKSQEFLEDADRKSLETKSLEVTFTPVIEDIGKVLVCRAKLHIDEMDSVPTVRQAVKELQVYISPGGGSDYKDDDDKGGGSDYKDDDDKGGGSDYKDDDDKGS
notes: Crude CHO-S supernatant, 3x spacer-FLAG tagged; also called I46R21
For B4, the “fold weaker binding relative to 146R0” value in assay [1] came to 1 fold.

B5: human 2D-VCAM-1 (ligand)
chain: FKIETTPESRYLAQIGDSVSLTCSTTGCESPFFSWRTQIDSPLNGKVTNEGTTSTLTMNPVSFGNEHSYLCTATCESRKLEKGIQVEIYSFPKDPEIHLSGPLEAGKPITVKCSVADVYPFDRLEIDLLKGDHLMKSQEFLEDADRKSLETKSLEVTFTPVIEDIGKVLVCRAKLHIDEMDSVPTVRQAVKELQVYISP
notes: also called wild type 2D-VCAM-1; wt-2D-VCAM-1; not shown: His tag
Consider B5, for which, in assay [2], the affinity, expressed as Kd, was 248 nM and the “binding affinity for LPAM-1-Fc relative to human 2D-VCAM-1” value worked out at 1 fold. In addition, in assay [3], the dissociation constant (Kd) amounted to 15.2 nM and the “binding affinity for VLA4-Fc relative to human 2D-VCAM-1” value came to 1 fold.

B6: 2D-VCAM-1 variant Clone 151 (ligand)
chain: FKIETTPESRYLAQIGDSVSLTCSTTGCESPSFYWRPQLDAPLNGKVTNEGTTSTLTMNPVSFGNEHSYLCTAACESRRLEKGIQVEIYSFPKDPEIHLSGPLEAGKPITVKCSVADVYPFDRLEIDLLKGDHLMKSQEFLEDADRKSLETKSLEVTFTPVIEDIGKVLVCRAKLHIDEMDSVPTVRQAVKELQVYISP
notes: not shown: His tag
As to B6, in assay [4], the “fold-improvement in binding relative to Q38L-2D-VCAM-1” value was 2 fold and the “fold-improvement in binding relative to human 2D-VCAM-1” value stood at 16 fold.

B7: R1R7 (ligand)
2D-VCAM-1 variant polypeptide: MFKIETTPESRYLAQIGDSVSLTCSTTGCESPFFFWRPLLDSPLNGKVTNEGTTSTLTMNPVSFGNEHSYLCTARCESRKLEKGIQVEIYSFPKDPEIHLSGPLEAGKPITVKCSVADVYPFDRLEIDLLKGDHLMKSQEFLEDADRKSLETKSLEVTFTPVIEDIGKVLVCRAKLHIDEMDSVPTVRQAVKELQVYISP
notes: also called 146R1R7
In the case of B7, in assay [5], the binding result is recorded as “binds”.

B8: R5R7 (ligand)
2D-VCAM-1 variant polypeptide: MFKIETTPESRYLAQIGDSVSLTCSTTGCESPLFFWRPLIDSPLNGKVTNEGTTSTLTMNPVSFGNEHSYLCTARCESRKLEKGIQVEIYSFPKDPEIHLSGPLEAGKPITVKCSVADVYPFDRLEIDLLKGDHLMKSQEFLEDADRKSLETKSLEVTFTPVIEDIGKVLVCRAKLHIDEMDSVPTVRQAVKELQVYISP
notes: also called 146R5R7
With B8, in assay [5], the binding result is recorded as “binds”.

B9: R1R3 (ligand)
2D-VCAM-1 variant polypeptide: MFKIETTPESRYLAQIGDSVSLTCSTTGCESPFFFWRTLLDSPLNGKVTNEGTTSTLTMNPVSFGNEHSYLCTARCESRSLEKGIQVEIYSFPKDPEIHLSGPLEAGKPITVKCSVADVYPFDRLEIDLLKGDHLMKSQEFLEDADRKSLETKSLEVTFTPVIEDIGKVLVCRAKLHIDEMDSVPTVRQAVKELQVYISP
notes: also called 146R1R3
For the molecule B9, in assay [5], the binding result was “binds”.

B10: R1R5 (ligand)
2D-VCAM-1 variant polypeptide: MFKIETTPESRYLAQIGDSVSLTCSTTGCESPFFFWRPLIDSPLNGKVTNEGTTSTLTMNPVSFGNEHSYLCTARCESRSLEKGIQVEIYSFPKDPEIHLSGPLEAGKPITVKCSVADVYPFDRLEIDLLKGDHLMKSQEFLEDADRKSLETKSLEVTFTPVIEDIGKVLVCRAKLHIDEMDSVPTVRQAVKELQVYISP
notes: also called 146R1R5
Consider B10, for which, in assay [5], the binding result was “binds”.

B11: R6R7 (ligand)
2D-VCAM-1 variant polypeptide: MFKIETTPESRYLAQIGDSVSLTCSTTGCESPLFFWRPLLDSPLNGKVTNEGTTSTLTMNPVSFGNEHSYLCTATCESRKLEKGIQVEIYSFPKDPEIHLSGPLEAGKPITVKCSVADVYPFDRLEIDLLKGDHLMKSQEFLEDADRKSLETKSLEVTFTPVIEDIGKVLVCRAKLHIDEMDSVPTVRQAVKELQVYISP
notes: also called 146R6R7
Turning to B11, in assay [5], the binding result was “binds”.

B12: R1R6R7 (ligand)
2D-VCAM-1 variant polypeptide: MFKIETTPESRYLAQIGDSVSLTCSTTGCESPFFFWRPLLDSPLNGKVTNEGTTSTLTMNPVSFGNEHSYLCTATCESRKLEKGIQVEIYSFPKDPEIHLSGPLEAGKPITVKCSVADVYPFDRLEIDLLKGDHLMKSQEFLEDADRKSLETKSLEVTFTPVIEDIGKVLVCRAKLHIDEMDSVPTVRQAVKELQVYISP
notes: also called 146R1R6R7
On to B12, for which, in assay [5], the binding result is recorded as “binds”.

B13: R3R7 (ligand)
2D-VCAM-1 variant polypeptide: MFKIETTPESRYLAQIGDSVSLTCSTTGCESPLFFWRTLLDSPLNGKVTNEGTTSTLTMNPVSFGNEHSYLCTARCESRKLEKGIQVEIYSFPKDPEIHLSGPLEAGKPITVKCSVADVYPFDRLEIDLLKGDHLMKSQEFLEDADRKSLETKSLEVTFTPVIEDIGKVLVCRAKLHIDEMDSVPTVRQAVKELQVYISP
notes: also called 146R3R7
For the molecule B13, in assay [5], the binding result is given as “binds”.
